Holding throughout (assay): SPR
For test [1], the target named is human neonatal Fc receptor (FcRn) (human) (UniProt P55899).
Test [2] has as its target monkey neonatal Fc receptor (FcRn) (monkey) (UniProt Q8SPV9).
Test [3] has as its target mouse neonatal Fc receptor (FcRn) (mouse) (UniProt Q61559).
In test [4] the target is rabbit neonatal Fc receptor (FcRn) (rabbit).
Test [5] has as its target rat neonatal Fc receptor (FcRn) (rat) (UniProt P13599).

pKd: −log10 of the molar value.

For the substance Efgartigimod (domain or fragment), the pKd in test [1] was 8.07; in test [2], 7.84; in test [3], 9.20; in test [4], 6.51; in test [5] it was 8.72.

The record behind these values is PMC11621151.
